The results in this text go back to patent US5935840A, “Activated recombinant adenovirus proteinases” (priority 1995, dated 1999).

The subject of data set [1] is Ad2 major core protein precursor, pVII. Nature of the data set: Assay of adenovirus proteinase activity in crude extracts: cleavage of [35S]-methionine-labeled pVII (SDS-PAGE, autoradiography). The data set is classed as biochemical, adenovirus type 2. The following applies: purified from baculovirus-infected Sf9 insect cells.
Data set [2] relates to (Leu-Arg-Gly-Gly-NH)2 -rhodamine. Briefly: Fluorescence assay of proteinase activity of virus and recombinant proteinase preparations. The data set is classed as biochemical. Particulars: about 5% pure, from Sf9 cells; Ad2 DNA and H2ts1 virions to provide cofactor. An excerpt: (§1) The nature of the proteinase cofactor(s) was pursued with the aid of the second assay, which utilizes the substrate (Leu-Arg-Gly-Gly-NH)2 -rhodamine. The design of this substrate was based on two facts. (1) It was known that the proteinase present in disrupted Ad2 virions would cleave small peptides with sequence similar to that found at natural cleavage sites in adenovirus virion precursors (Webster et al., 1989). (2) Cleavage of either tetra-peptide sequence from the substituted rhodamine substrate produces a very large increase, up to a 3500-fold, in fluorescence. Under conditions where only a small fraction of the rhodamine substrate is cleaved, the increase in fluorescence is proportional to the amount of proteinase present and to the time of incubation. Thus, the fluorescence assay provides a quantitative method for assessing proteinase activity that is more sensitive convenient and rapid than the gel electrophoresis assay.
Assays were performed in 400 μl of Assay Buffer (50 mM Tris-HCl, pH 7.4, 25 mM NaCl, 10 mM octylglucoside, and 1 mM dithiothreitol). […] When present, the number of disrupted virus particles was 10^10 and the amount of recombinant proteinase was 0.12 mAU280 nm. […] After 30 minutes at 37° C., a 360 μl aliquot of the reaction was added to 340 μl of Assay Buffer minus octylglucoside, and the increase in fluorescence was measured. The excitation wavelength was 492 nm and the emission wavelength was 523 nm, both with a bandwidth of 5 nm. The change in fluorescence, ΔF, is the magnitude of the fluorescence from the sample minus the magnitude of the fluorescence from an identical solution without enzyme.
Disrupted virus was obtained as follows: Twice CsCl-banded virus was dialyzed against 10 mM Tris-HCl, pH 8.0, 1mM EDTA and centrifuged at 100,000×g for 1 hour. The pellet was suspended in 10 mM Tris-HCl, pH 6.8, containing 20% (v/v) glycerol and, after three 10 second bursts of sonication, was stored at -20° C. The fluorogenic substrate was synthesized and purified at BNL by Dr. Walter Mangel, using methods similar to those previously described by Dr. Mangel. These methods are described in two U.S. Patents (U.S. Pat. No. 4,557,862 entitled "Rhodamine derivatives as fluorogenic substrates for proteinases" by Mangel, W. F., Leytus, S., and L. Helhado; issued Dec. 10, 1985; U.S. patent application Ser. No. 780,552; "Novel rhodamine derivatives as fluorogenic substrates" by Mangel, W. F., Leytus, S., and L. Helhado; filing date Sep. 24, 1985) and in other publications by Mangel and co-workers.

Data set [3] relates to Ad2 proteinase (rEP protein). The data set is classed as biochemical, human adenovirus type 2. Particulars: disrupted H2ts1 virus treated with DNase prior to the assay, plus recombinant proteinase.
Text: as §1
(§2) After determining the identity of the two cofactors, reconstitution of adenovirus proteinase activity in vitro with purified components was accomplished. […] In (a), Assays in 1 ml contained 1.2 nM rEP protein, 11.9 pM Ad2 DNA and the indicated concentrations of pVI-c peptide. The rate of substrate hydrolysis is the rate in the reaction minus the rate with the rEP protein and Ad2 DNA alone which was 0.068 pmol min^-1. In (b), Assays in 1 ml contained 1.2 nM rEP protein, 36 nM pVI-c peptide and the indicated concentrations of Ad2 DNA. The rate of substrate hydrolysis is the rate in the reaction minus the rate with the rEP protein and pVI-c alone which was 2.76 pmol min^-1. The concentration of (Leu-Arg-Gly-Gly-NH)2 -rhodamine was 5 μM, and its rate of hydrolysis to Leu-Arg-Gly-Gly-NH-rhodamine was determined by measuring the increase in fluorescence every 3 minutes for 15 minutes. The pVI-c peptide was assembled in a peptide synthesizer.
(§3) Assays were performed in 400 μl of Assay Buffer (50 mM Tris-HCl, pH 7.4, 25 mM NaCl, 10 mM octylglucoside, and 1 mM dithiothreitol). The concentration of the fluorogenic substrate, (Leu-Arg-Gly-Gly-NH)2 -rhodamine was 5 μM. When present, the number of disrupted virus particles was 10^10 and the amount of recombinant proteinase was 0.12 mAU280 nm. […] After 30 minutes at 37° C., a 360 μl aliquot of the reaction was added to 340 μl of Assay Buffer minus octylglucoside, and the increase in fluorescence was measured. The excitation wavelength was 492 nm and the emission wavelength was 523 nm, both with a bandwidth of 5 nm. The change in fluorescence, ΔF, is the magnitude of the fluorescence from the sample minus the magnitude of the fluorescence from an identical solution without enzyme.
(§4) DNase-treated disrupted virus was obtained by incubating 2×10^10 disrupted virions in 20 μl containing 0.1M NaAc, pH 5.0, 5 mM MgCl2, and 55 μg/ml DNase I for 4 minutes at 25° C. Then, EDTA to 23 mM and dithiothreitol to 2.3 mM were added, and the reactions were heated at 56° C. for 1 minute to inactivate the DNase.
(§5) For the assays shown in FIG. 8, the DNase reactions were diluted by the addition of 380 μl Assay Buffer containing the substrate, the proteinase and either 2×10^10 molecules of Ad2 DNA (+) or no DNA (-). After 30 minutes at 37° C., 360 μl of the reactions were added to 340 μl Assay Buffer minus octylglucoside and the increase in fluorescence was measured. The assays in (B) and (C) were identical to those in (A) except that in (B) H2ts1 virus was added after the DNase was inactivated (i-DNase) and in (C) no Dnase was present. In (D) recombinant proteinase plus 10^10 molecules of Ad2 DNA were preincubated for 10 minutes at 37° C. before adding substrate.
(§6) .dagger. All assays contained 8.3 nM rEP protein, 98 nM pVIc peptide, and
(§7) 1 μM (Leu--Arg--Gly--Gly--NH)2rhodamine. The rate of substrate

The target of data set [4] is T1, recombinant Ad2 proteinase (Human adenovirus C serotype 2, UniProt P03252).
T1 construct: also expresses the wild-type 204-amino acid EP polypeptide; made in house; host or cells: E. coli BL21(DE3)
T1 sequence (P03252 whole entry): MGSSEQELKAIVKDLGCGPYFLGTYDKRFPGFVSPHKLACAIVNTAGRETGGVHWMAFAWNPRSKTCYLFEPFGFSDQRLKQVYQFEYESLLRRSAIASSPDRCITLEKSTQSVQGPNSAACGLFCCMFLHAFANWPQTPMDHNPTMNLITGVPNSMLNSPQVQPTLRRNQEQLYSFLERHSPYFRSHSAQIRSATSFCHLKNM
Nature of the data set: Cofactor activity in HEP1DBP cleavage by recombinant Ad2 proteinase. The data set is classed as biochemical, human adenovirus type 2. The following applies: peptide mixed with recombinant Ad2 proteinase and Ad2 DNA. As to the method:
When purified HEP1DBP was incubated with disrupted wild-type adenovirus 2 virions, it was cleaved, as determined from the change in its mobility during SDS-polyacrylamide gel electrophoresis. No cleavage was observed when incubation was with disrupted H2ts1 virions alone.
To determine if the Ad12 carboxy-terminal fragment of pVI functioned as the EP co-factor, the corresponding synthetic peptide was mixed with recombinant Ad2 proteinase and Ad2 DNA, and incubated with the HEP1DBP substrate.

Data set [5] addresses T2, Ad2 proteinase (rEP protein) (Human adenovirus C serotype 2, UniProt P03252).
T2 construct: Plasmid pT7AD23k6 contains the 204 codons of the Ad2 proteinase reading frame plus a translational termination codon; made in house; host or cells: E. coli BL21(DE3)
The data set is classed as biochemical, human adenovirus type 2. The following applies: 1.2 nM rEP protein, 36 nM pVI-c peptide, no DNA, 5 μM substrate, 1 ml.
Text: as §1, §2, §3, §4, §5, §6, §7

Data set [6] can be described thus: Stability/sensitivity of the peptide cofactor. The data set is classed as physicochemical. Particulars: boiling for 5 minutes.

T2 sequence (P03252 whole entry): as above

On to “vNPVAd2EP: recombinant Ad2 proteinase expressed in Sf9 insect cells from baculovirus vector vNPVAd2EP”, for which the “Activity in the crude extract assay” value in data set [1] is on record as “active”. For the same substance, in data set [2], the Specific activity entry was “equivalent to that of bacterially-produced proteinase”.
For DNase, in data set [3], the “Proteinase activity lost relative to untreated H2ts1 virus” value was determined as 94%.
As to GVQSLHRRRCF [pVI-c peptide], the “Cleavage of the HEP1DBP substrate” value in data set [4] was “Rapid and complete cleavage”. In addition, the “Rate of substrate hydrolysis with the rEP protein and pVI-c alone” value in data set [5] turned out to be 2.76 pmol min^-1. Moreover, the “Heat stability of cofactor activity” value in data set [6] is listed as “did not irreversibly denature”.
